For assay [1], the target named is His6-tagged H3t/H4 complex (human, UniProt Q16695;P62805). The experiment in a line: pull-down.
The target in assay [2] is His6-tagged H3.1/H4 complex (human, UniProt P68431;P62805). The experiment in a line: pull-down.
In assay [3] the target is T1, H3.1/H4 complex (His6 tags removed) (human, UniProt P68431;P62805). The experiment in a line: native gel or EMSA.
The target in assay [4] is T2, H3t/H4 complex (His6 tags removed) (human, UniProt Q16695;P62805). The assay can be described thus: native gel or EMSA. A general note: In EMSA bound probe runs differently from free probe, usually more slowly.
Assay [5] addresses T1, H3.1/H4 complex (His6 tags removed). The experiment in a line: pull-down.
In assay [6] the target is T2, H3t/H4 complex (His6 tags removed). The assay can be described thus: pull-down.

B1: human Nap1 (nucleosome assembly protein 1), His6 tag removed (natural protein)
chain: MADIDNKEQSELDQDLDDVEEVEEEETGEETKLKARQLTVQMMQNPQILAALQERLDGLVETPTGYIESLPRVVKRRVNALKNLQVKCAQIEAKFYEEVHDLERKYAVLYQPLFDKRFEIINAIYEPTEEECEWKPDEEDEISEELKEKAKIEDEKKDEEKEDPKGIPEFWLTVFKNVDLLSDMVQEHDEPILKHLKDIKVKFSDAGQPMSFVLEFHFEPNEYFTNEVLTKTYRMRSEPDDSDPFSFDGPEIMGCTGCQIDWKKGKNVTLKTIKKKQKHKGRGTVRTVTKTVSNDSFFNFFAPPEVPESGDLDDDAEAILAADFEIGHFLRERIIPRSVLYFTGEAIEDDDDDYDEEGEEADEEGEEEGDEENDPDYDPKKDQNPAECKQQ
With B1, the binding result in assay [1], in assay [2], in assay [3] and in assay [4] was “binds” each time.

B2: His6-tagged human Nap2 (natural protein)
chain: MADHSFSDGVPSDSVEAAKNASNTEKLTDQVMQNPRVLAALQERLDNVPHTPSSYIETLPKAVKRRINALKQLQVRCAHIEAKFYEEVHDLERKYAALYQPLFDKRREFITGDVEPTDAESEWHSENEEEEKLAGDMKSKVVVTEKAAATAEEPDPKGIPEFWFTIFRNVDMLSELVQEYDEPILKHLQDIKVKFSDPGQPMSFVLEFHFEPNDYFTNSVLTKTYKMKSEPDKADPFSFEGPEIVDCDGCTIDWKKGKNVTVKTIKKKQKHKGRGTVRTITKQVPNESFFNFFNPLKASGDGESLDEDSEFTLASDFEIGHFFRERIVPRAVLYFTGEAIEDDDNFEEGEEGEEEELEGDEEGEDEDDAEINPKV
On to B2, for which the binding result in assay [5] and in assay [6] was “binds” throughout.

B3: His6-tagged human Nap1 (natural protein)
chain: B1 chain
Take B3: the binding result in assay [5] and in assay [6] was “binds” each time.

B4: human Nap2, His6 tag removed (natural protein)
chain: B2 chain
Regarding B4, the binding result in assay [1] and in assay [2] was “binds” in each case.
